Test results as given in patent US6387638.
Changes are numbered by the printed parent chain. Names and notes keep the numbering of the source. Where two headings read alike, the source gives them in different places. Ends that are not written are not given here.

B1: HRG-β1 EGF variant E3, phage-displayed (ligand)
chain: SHLVKCAEKEKTFCVNGGECFMVKDYRYRMCKCPNEFTGDRCQNYVIAS
modifications: not fully specified; cysteine pairing not given here
notes: not shown: Display carrier only: the (GGGS)3 linker and the M13 pIII C-terminal fragment from residue 323
B2: combination variant HRG57, phage-displayed (ligand)
chain: B1 chain with F21Y, M22R, D25T, R27G, R29L, I47M
modifications: not fully specified; cysteine pairing not given here
notes: not shown: Display carrier: (GGGS)3 linker and M13 pIII C-terminal fragment from residue 323
B3: combination variant HRG48, phage-displayed (ligand)
chain: B1 chain with R27G, R29L
modifications: not fully specified; cysteine pairing not given here
notes: as for B2
B4: HRG-β1 EGF variant E6, phage-displayed (ligand)
chain: B1 chain with Y26T, R27H, I47M
modifications: not fully specified; cysteine pairing not given here
notes: as for B1
B5: combination variant HRG71, phage-displayed (ligand)
chain: B1 chain with F21Y, M22R, D25T, R27G, R29L, N44H
modifications: not fully specified; cysteine pairing not given here
notes: not shown: Display carrier only: (GGGS)3 linker and the M13 pIII C-terminal fragment from residue 323
B6: Trx-HRG-β1 146-244 S177A fusion (soluble) (ligand)
chain: AYVSSESPIRISVSTEGANTSSSTSTSTTGTAHLVKCAEKEKTFCVNGGECFMVKDLSNPSRYLCKCPNEFTGDRCQNYVMASFYKHLGIEFMEAEELY
B7: Trx-HRG-β1 146-244 F189A fusion (soluble) (ligand)
chain: B6 chain with A32S, F44A
B8: Trx-HRG-β1 146-244 K200A fusion (soluble) (ligand)
chain: B6 chain with A32S, K55A
B9: Trx-HRG-β1 146-244 H178A fusion (soluble) (ligand)
chain: B6 chain with A32S, H33A
B10: Trx-HRG-β1 146-244 P205A fusion (soluble) (ligand)
chain: B6 chain with A32S, P60A
B11: Trx-HRG-β1 146-244 N192A fusion (soluble) (ligand)
chain: B6 chain with A32S, N47A
B12: Trx-HRG-β1 146-244 L179A fusion (soluble) (ligand)
chain: B6 chain with A32S, L34A
B13: Trx-HRG-β1 146-244 G193A fusion (soluble) (ligand)
chain: B6 chain with A32S, G48A
B14: Trx-HRG-β1 146-244 R207A fusion (soluble) (ligand)
chain: B6 chain with A32S, R62A
B15: Trx-HRG-β1 146-244 E195A fusion (soluble) (ligand)
chain: B6 chain with A32S, E50A
B16: Trx-HRG-β1 146-244 G194A fusion (soluble) (ligand)
chain: B6 chain with A32S, G49A
B17: Trx-HRG-β1 146-244 T217A fusion (soluble) (ligand)
chain: B6 chain with A32S, T72A
B18: combination variant HRG54, phage-displayed (ligand)
chain: SHLVKCGEEREGFCVNGGECFMVKDYGYLMCKCPNEFTGDRCQNYVMAS
modifications: not fully specified; cysteine pairing not given here
notes: as for B2
B19: combination variant HRG62, phage-displayed (ligand)
chain: B18 chain with F21Y, M22R, D25T, M47I
modifications: not fully specified; cysteine pairing not given here
notes: as for B5
B20: combination variant HRG55, phage-displayed (ligand)
chain: B18 chain with F21Y, M22R, D25T
modifications: not fully specified; cysteine pairing not given here
notes: as for B2
B21: combination variant HRG61, phage-displayed (ligand)
chain: B18 chain with M47I
modifications: not fully specified; cysteine pairing not given here
notes: as for B5
B22: HRG90: HRG-β1 EGF Met226Ile, phage-displayed (ligand, phage M13)
chain: SHLVKCAEKEKTFCVNGGECFMVKDLSNPSRYLCKCPNEFTGDRCQNYVIASGGGSGGGSGGGSNSQMAQVGDGDNSPLMNNFRQYLPSLPQSVECRPFVFSAGKPYEFSIDCDKINLFRGVFAFLLYVATFMYVFSTFANILRNKES
notes: range 323-end
B23: HRG-β1 177-244 L179M, phage-displayed (Example 4 clone) (ligand)
chain: SHMVKCAEKEKTFCVNGGECFMVKDLSNPSRYLCKCPNEFTGDRCQNYVMASFYKHLGIEFMEAEELY
notes: not shown: Display carrier only: the M13 pIII C-terminal fragment from residue 247
B24: HRG-β1 177-244 H178T L179M, phage-displayed (Example 4 clone) (ligand)
chain: B23 chain with H2T
notes: also called T M ·; not shown: M13 pIII C-terminal fragment (fusion point pIII 247), the phage display partner
B25: HRG-β1 177-244 H178E L179V, phage-displayed (Example 4 clone) (ligand)
chain: B23 chain with H2E, M3V
notes: also called E V ·; not shown: M13 pIII C-terminal fragment (fusion point pIII 247), the phage display partner
B26: HRG-β1 EGF variant D1, phage-displayed (ligand)
chain: SHLVKCAEKEKTFCVNGGECYKVRILSNPSRYLCKCPNEFTGDRCQNYVIAS
modifications: not fully specified; cysteine pairing not given here
notes: pHRG8-g3 scaffold; not shown: Display carrier only: the (GGGS)3 linker and the M13 pIII C-terminal fragment from residue 323
B27: combination variant HRG59, phage-displayed (ligand)
chain: B26 chain with K22R, R24K, I25T
modifications: not fully specified; cysteine pairing not given here
notes: as for B2
B28: HRG-β1 EGF variant D10, phage-displayed (ligand)
chain: B26 chain with K22M, R24K, I25T, I50M
modifications: not fully specified; cysteine pairing not given here
notes: as for B26
B29: HRG-β1 EGF variant B5, phage-displayed (ligand)
chain: SHLVKCGWDREGFCVNGGECFMVKDLSNPSRYLCKCPNEFTGDRCQNYVIAS
modifications: not fully specified; cysteine pairing not given here
notes: as for B26
B30: combination variant HRG56, phage-displayed (ligand)
chain: B29 chain with W8E, D9E
modifications: not fully specified; cysteine pairing not given here
notes: as for B2
B31: combination variant HRG60, phage-displayed (ligand)
chain: B29 chain with W8E, D9E, F21Y, M22R, D25T
modifications: not fully specified; cysteine pairing not given here
notes: as for B5
B32: HRG-β1 EGF variant B10, phage-displayed (ligand)
chain: B29 chain with G7D, W8K, D9S
modifications: not fully specified; cysteine pairing not given here
notes: as for B26
B33: combination variant HRG53, phage-displayed (ligand)
chain: B29 chain with W8E, D9E, F21Y, M22R, D25T, I50M
modifications: not fully specified; cysteine pairing not given here
notes: as for B2

Columns and labels:
[1] = target: T1, ErbB-4 receptor-Ig fusion (homodimer) (human, UniProt Q15303 26-651; Q15303 26-640); assay: phage ELISA, soluble ErbB-4-Ig as competitor
T1 sequence (Q15303 other isoform, or with tags, fused parts or gaps): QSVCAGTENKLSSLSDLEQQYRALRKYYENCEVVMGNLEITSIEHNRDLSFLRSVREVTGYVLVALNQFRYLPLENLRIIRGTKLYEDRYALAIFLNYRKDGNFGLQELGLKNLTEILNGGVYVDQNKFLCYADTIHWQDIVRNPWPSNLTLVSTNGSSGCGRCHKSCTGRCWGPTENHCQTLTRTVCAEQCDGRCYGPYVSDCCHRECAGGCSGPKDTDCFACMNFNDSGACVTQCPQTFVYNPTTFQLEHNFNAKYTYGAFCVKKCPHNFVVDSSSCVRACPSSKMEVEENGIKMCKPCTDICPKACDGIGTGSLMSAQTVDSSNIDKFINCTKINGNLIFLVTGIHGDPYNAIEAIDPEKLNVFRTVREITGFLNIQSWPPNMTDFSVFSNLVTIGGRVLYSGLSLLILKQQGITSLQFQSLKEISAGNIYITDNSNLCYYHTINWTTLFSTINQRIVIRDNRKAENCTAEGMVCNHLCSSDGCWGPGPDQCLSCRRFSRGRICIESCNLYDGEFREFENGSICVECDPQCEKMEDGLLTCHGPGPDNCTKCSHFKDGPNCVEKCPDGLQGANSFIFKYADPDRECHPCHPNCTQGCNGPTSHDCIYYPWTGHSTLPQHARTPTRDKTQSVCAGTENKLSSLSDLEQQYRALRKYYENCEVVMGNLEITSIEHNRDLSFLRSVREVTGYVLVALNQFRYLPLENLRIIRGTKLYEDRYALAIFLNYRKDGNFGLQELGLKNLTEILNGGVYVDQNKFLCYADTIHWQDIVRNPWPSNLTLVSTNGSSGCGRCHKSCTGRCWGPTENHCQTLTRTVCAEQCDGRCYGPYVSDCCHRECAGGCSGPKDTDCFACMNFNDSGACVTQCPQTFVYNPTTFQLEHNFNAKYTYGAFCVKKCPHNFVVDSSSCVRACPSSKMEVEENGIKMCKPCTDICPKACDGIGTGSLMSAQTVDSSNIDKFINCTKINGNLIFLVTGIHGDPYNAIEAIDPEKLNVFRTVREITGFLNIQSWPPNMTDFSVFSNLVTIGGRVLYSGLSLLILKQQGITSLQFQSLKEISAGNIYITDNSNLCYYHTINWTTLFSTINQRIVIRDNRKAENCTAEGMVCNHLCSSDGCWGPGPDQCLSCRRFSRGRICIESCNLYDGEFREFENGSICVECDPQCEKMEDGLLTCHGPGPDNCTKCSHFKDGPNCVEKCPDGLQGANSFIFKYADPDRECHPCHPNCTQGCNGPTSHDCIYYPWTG

[2] = target: T2, ErbB-3 receptor-Ig fusion (homodimer) (human, UniProt P21860 20-643; P21860 20-636); assay: phage ELISA, soluble ErbB-3-Ig as competitor
T2 sequence (P21860 other isoform, or with tags, fused parts or gaps): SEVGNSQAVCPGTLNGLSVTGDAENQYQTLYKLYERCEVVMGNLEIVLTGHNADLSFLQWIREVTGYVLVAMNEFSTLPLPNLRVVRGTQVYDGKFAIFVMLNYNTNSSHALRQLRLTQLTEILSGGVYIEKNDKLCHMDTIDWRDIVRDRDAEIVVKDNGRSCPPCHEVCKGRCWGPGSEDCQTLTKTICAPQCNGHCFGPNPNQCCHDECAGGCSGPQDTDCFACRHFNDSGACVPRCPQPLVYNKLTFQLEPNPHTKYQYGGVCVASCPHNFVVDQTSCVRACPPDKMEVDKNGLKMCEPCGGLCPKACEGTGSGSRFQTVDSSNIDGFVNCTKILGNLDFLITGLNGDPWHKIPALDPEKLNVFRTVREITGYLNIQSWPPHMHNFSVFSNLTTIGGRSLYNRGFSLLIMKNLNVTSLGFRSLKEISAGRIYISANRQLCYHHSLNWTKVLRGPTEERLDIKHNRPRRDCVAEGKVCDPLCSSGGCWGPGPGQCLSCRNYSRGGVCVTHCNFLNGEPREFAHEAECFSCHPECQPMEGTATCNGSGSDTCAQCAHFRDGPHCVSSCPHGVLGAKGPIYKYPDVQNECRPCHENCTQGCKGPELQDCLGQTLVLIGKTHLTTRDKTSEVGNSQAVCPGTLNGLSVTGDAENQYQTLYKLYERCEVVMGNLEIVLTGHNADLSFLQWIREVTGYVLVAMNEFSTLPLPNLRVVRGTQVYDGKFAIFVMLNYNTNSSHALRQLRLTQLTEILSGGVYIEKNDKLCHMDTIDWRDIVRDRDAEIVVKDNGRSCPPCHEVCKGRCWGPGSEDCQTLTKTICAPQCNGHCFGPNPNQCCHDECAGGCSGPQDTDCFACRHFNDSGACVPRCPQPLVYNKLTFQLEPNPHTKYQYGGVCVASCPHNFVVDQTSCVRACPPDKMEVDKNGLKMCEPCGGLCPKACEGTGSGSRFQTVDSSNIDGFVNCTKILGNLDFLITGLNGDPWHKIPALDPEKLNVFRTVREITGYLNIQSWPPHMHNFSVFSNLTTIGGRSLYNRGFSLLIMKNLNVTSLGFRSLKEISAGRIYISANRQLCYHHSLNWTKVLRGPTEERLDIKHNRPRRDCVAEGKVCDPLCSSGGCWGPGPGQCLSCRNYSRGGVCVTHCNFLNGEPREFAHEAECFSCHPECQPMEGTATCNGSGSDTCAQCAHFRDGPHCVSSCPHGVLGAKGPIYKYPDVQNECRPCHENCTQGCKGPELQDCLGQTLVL

[3] = target: T2, ErbB-3 receptor-Ig fusion (homodimer); assay: phage ELISA, soluble ErbB-3-Ig as competitor; remark: listed apart in the source
[4] = target: T2, ErbB-3 receptor-Ig fusion (homodimer); assay: displacement of 125I-HRG-β1 177-244 from plate-bound ErbB-3-Ig
[5] = target: T1, ErbB-4 receptor-Ig fusion (homodimer); assay: displacement of 125I-HRG-β1 177-244 from plate-bound ErbB-4-Ig
[6] = target: T1, ErbB-4 receptor-Ig fusion (homodimer); assay: phage ELISA, soluble ErbB-4-Ig as competitor; remark: listed apart in the source
[7] = target: T2, ErbB-3 receptor-Ig fusion (homodimer); assay: phage ELISA, soluble ErbB-3-Ig as competitor; remark: listed apart in the source

Molecule	EC50(wt)/EC50(mut) [3] [ratio]	EC50 [4] [nM]	EC50 [5] [nM]	also measured
HRG-β1 177-244 L179V, phage-displayed (Example 4 clone) (from UniProt P69168 265-424) (ligand)				EC50 Mut/WT [1]: 1.6; EC50 Mut/WT [2]: 1.5
HRG-β1 177-244 H178L, phage-displayed (Example 4 clone) (from UniProt P69168 265-424) (ligand)				EC50 Mut/WT [1]: 1.2; EC50 Mut/WT [2]: 1.4
HRG-β1 177-244 H178E, phage-displayed (Example 4 clone) (from UniProt P69168 265-424) (ligand)				EC50 Mut/WT [1]: 1.7; EC50 Mut/WT [2]: 9.5
HRG-β1 177-244 H178W with 228-231 replaced by Met, phage-displayed (Example 4 clone) (from UniProt P69168 265-424) (ligand)				EC50 Mut/WT [1]: 1.7; EC50 Mut/WT [2]: 1.2
HRG-β1 177-244 H178L with 228-231 replaced by Met, phage-displayed (Example 4 clone) (from UniProt P69168 265-424) (ligand)				EC50 Mut/WT [1]: 1.7; EC50 Mut/WT [2]: 6.4
HRG-β1 177-244 R207P, phage-displayed (Example 4 clone) (from UniProt P69168 265-424) (ligand)				EC50 Mut/WT [1]: 1.3; EC50 Mut/WT [2]: 6.1
HRG-β1 177-244 H178D L179V, phage-displayed (Example 4 clone) (from UniProt P69168 265-424) (ligand)				EC50 Mut/WT [1]: 2; EC50 Mut/WT [2]: 2.2
B1	16			
B2	24			
B3	49			
B4	6.6			
B5	79			
B6		129	54.6	
B7		975	565	
B8		45.4	16.9	
B9		476	138	
B10		39.5	34.2	
B11		1640	696	
B12		394	51.7	
B13		26.9	76.3	

Molecule	EC50(wt)/EC50(mut) [3] [ratio]	EC50 [4] [nM]	EC50 [5] [nM]	also measured
B14		245	24.3	
B15		42	13.2	
B16		1210	275	
B17		145	32.7	
B18	12			
B19	32			
B20	13			
B21	29			
B22	6.3			
B23				EC50 Mut/WT [6]: 1.5 ratio; EC50 Mut/WT [7]: 1.2 ratio
B24				EC50 Mut/WT [6]: 1.6 ratio; EC50 Mut/WT [7]: 1.4 ratio
B25				EC50 Mut/WT [6]: 1.7 ratio; EC50 Mut/WT [7]: 0.8 ratio
B26	11			
B27	26			
B28	2.1			
B29	26			
B30	31			
B31	63			
B32	9.3			
B33	26			
